Measurements from article PMC4894640, “RAB-10 Promotes EHBP-1 Bridging of Filamentous Actin and Tubular Recycling Endosomes” (PLoS Genetics, 2016).

Target: F-actin (polymerized non-muscle actin) (UniProt P60709 1-375)
Test: co-sedimentation; GST fusion protein incubated with 40 ul freshly polymerized non-muscle actin (21 uM F-actin) or F-actin buffer alone, 30 min at room temperature, 150,000 x g 1.5 h at 24 C; supernatant and pellet on SDS-PAGE, coomassie or western blot, densitometry
Settings: both partners purified

B1: GST-EHBP-1(260-510aa) (domain or fragment, C. elegans, UniProt G5ECW3 260-510, looked up)
chain: APAPIATNRHSRSSRASTEEKASTTIEFRVDSNSRHVPVTAIATPYYLQSGTMSRGRSNSPRAPSRDAVPQPIDGETLLSWCQRVTNGYSHVKVNDFMKSWNNGLALCAVLHSYRPDLIGDYETLDISNNMSGRISNIQRALDSLTLIGITEVPTVDMFLTPDRKQIEFLLQHLRRIFEGFDEGSTPASASDHRISRTFGINESEEKVVAMITEIRNQKDLEEAVDYRHIPDEVPVTPQLASRNPALNQPT
notes: C. elegans EHBP-1, central calponin homology (CH) domain, residues 260-510; Cloned into pGEX-2T modified with a Gateway cassette; also called GST-CH; GST-EHBP-1-CH (aa260-510); source: E. coli ArcticExpress, purified (glutathione-Sepharose 4B, eluted with glutathione); held on glutathione beads for the pull-down
P/S ratio (pellet/supernatant) with actin filaments: ~80%
